Literature values, collected in article PMC5700508.

Molecular target: transferrin receptor (Homo sapiens) (UniProt P02786)
Sequence (P02786 101-760): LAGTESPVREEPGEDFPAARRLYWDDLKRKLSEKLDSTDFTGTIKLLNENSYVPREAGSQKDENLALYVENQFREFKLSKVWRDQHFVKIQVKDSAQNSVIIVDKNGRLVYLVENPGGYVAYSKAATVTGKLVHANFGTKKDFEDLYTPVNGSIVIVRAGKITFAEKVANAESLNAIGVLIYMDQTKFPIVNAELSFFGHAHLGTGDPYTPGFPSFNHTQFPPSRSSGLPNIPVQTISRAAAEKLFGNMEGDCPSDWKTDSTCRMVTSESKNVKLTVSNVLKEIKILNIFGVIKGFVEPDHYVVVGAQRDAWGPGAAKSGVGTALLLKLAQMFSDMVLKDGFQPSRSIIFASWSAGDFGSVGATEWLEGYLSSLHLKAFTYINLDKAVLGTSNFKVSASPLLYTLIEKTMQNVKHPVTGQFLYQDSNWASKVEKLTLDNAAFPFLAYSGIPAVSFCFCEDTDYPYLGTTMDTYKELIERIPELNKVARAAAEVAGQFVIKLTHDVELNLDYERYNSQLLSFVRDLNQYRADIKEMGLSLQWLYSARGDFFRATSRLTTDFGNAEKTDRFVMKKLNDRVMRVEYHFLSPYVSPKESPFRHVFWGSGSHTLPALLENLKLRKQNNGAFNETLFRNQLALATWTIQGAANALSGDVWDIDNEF

For T7 peptide, the Kd is listed as 10 nM.
